This note sets out measurements from US20230174648A1 (published 2023).

In test [1] the target is T1, human SIRPα V1-His monomer protein (human, UniProt P78324 31-373).
T1 construct: SIRP-His monomer used as analyte in BLI (Octet); also called SIRP-His; monomeric human SIRPα; not shown: His tag
Description: BLI (ForteBio Octet), antibody on AMC biosensor, SIRP-His monomer 100/33.3/11.1 nM, 1:1 model, averaged KD. A general note: Biolayer interferometry detects binding as a change in optical thickness at a sensor tip.

Test [2] deals with T2, human SIRPα V1, extracellular domain (human, UniProt P78324 31-373).
T2 construct: also called hSIRPα V1; monomeric human SIRPα
Description: SPR (BIACORE), antibody captured on chip, monomeric SIRPα ECD as analyte, 1:1 model. In general terms: Surface plasmon resonance follows binding to a sensor surface in real time, without labels.
Description: (§1) The affinities of these SIRPα antibodies were determined using surface plasmon resonance. The SIRPα antibodies were flowed onto a chip and captured by an anti-human IgG covalently coupled to the surface of the chip. A three-point titration of the extracellular binding domain of hSIRPα was performed per the manufacturer’s recommended protocols.

For test [3], the target named is T3, cynomolgus monkey SIRPα, extracellular domain (cynomolgus monkey, UniProt A0A2K5VYQ9 31-372).
T3 construct: extracellular domain; Monomeric protein in SPR; also called Cyno SIRPα; monomeric cynomolgus monkey SIRPα
Description: SPR (BIACORE), antibody captured on chip, monomeric SIRPα as analyte, 1:1 model.
Description: as §1

Test [4] deals with T4, human SIRPβ1-His monomer protein (human, UniProt O00241 30-371).
T4 construct: also called SIRP-His; monomeric human SIRPβ1; not shown: His tag
Description: BLI (ForteBio Octet), antibody on AMC biosensor, SIRP-His monomer 100/33.3/11.1 nM, 1:1 model, averaged KD.

In test [5] the target is T5, human SIRPα V2, extracellular domain (human, UniProt P78324 31-373).
T5 construct: also called hSIRPα V2
Description: SPR (BIACORE), antibody captured by anti-human IgG, monomeric SIRPα ECD as analyte, 1:1 model.
Description: as §1

Test [6] addresses T2, human SIRPα V1, extracellular domain. Described as above.
Description: as §1
For test [7], the target named is T3, cynomolgus monkey SIRPα, extracellular …. Description: SPR (BIACORE), antibody captured by anti-human IgG, monomeric SIRPα as analyte, 1:1 model.
Description: as §1
For test [8] the target is unchanged. Description: SPR (BIACORE), antibody captured, monomeric SIRPα as analyte.

T4 sequence (O00241 30-371 limits assumed): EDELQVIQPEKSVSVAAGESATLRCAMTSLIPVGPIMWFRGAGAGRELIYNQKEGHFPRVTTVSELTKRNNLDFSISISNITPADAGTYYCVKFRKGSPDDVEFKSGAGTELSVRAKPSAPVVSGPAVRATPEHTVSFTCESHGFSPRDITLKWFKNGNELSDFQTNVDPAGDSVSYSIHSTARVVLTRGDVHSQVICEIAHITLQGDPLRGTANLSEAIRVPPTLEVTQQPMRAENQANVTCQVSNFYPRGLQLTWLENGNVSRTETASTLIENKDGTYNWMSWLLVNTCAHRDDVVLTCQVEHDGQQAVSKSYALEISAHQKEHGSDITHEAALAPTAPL

B1: Antibody 5 (antibody, rat IgG2b, V domains shown)
VH: QVQLVESGGGVVQPGRSLRLSCAASGFTFSNYGMHWVRQAPGKGPEWVAVIWYDGSYKYYGDSVKGRFTISRDNSKNTLYLQMNSLRAEDTAVYYCVRESVGYSSGWSFDYWGQGILVTVSS
VL: DIQMTQSPSTLSASVGDRVTITCRASQSISSWLAWYQQKPGKVPKLLIYKASSLKTGVPSRFSGNGSGTEFTLTISSLQPDDFATYYCQQYNSYSWTFGQGTKVEIK
notes: Human variable region with rat IgG2b Fc
As usually defined, the Kd is the constant that tells how readily two partners part at equilibrium. On to B1, for which the Kd in test [1] was 17.3 nM.

B2: Antibody 6 (antibody, rat IgG2b, V domains shown)
VH: EVQLLESGGGLVQPGGSLRLSCAASGFTLSSYAMSWVRQAPGKGLEWVSISSGSGANTYNADSLKGRFTISRDNSKNTLFLQMNSLRAEDTAVYYCARLRFFDWFDYWGQGALVTVSS
VL: QAVVTQESALTTSPGETVTLTCRSSTGAVTTSNYANWVQEKPDHLFTGLIGGTNNRTPGVPARFSGSLIGDKAALTITGAQTEDEAIYFCALWYSNHWVFGGGTKLTVL
notes: as for B1
On to B2, for which the Kd in test [2] is 4.1 nM; in test [3], 56.1 nM; in test [1], 1.21 nM; in test [4] it was 0.456 nM.

B3: Antibody 22 (antibody, V domains shown)
VH: EVQLLESGGGLVQPGGSLRLSCAASGFTLSSYAMSWVRQAPGKGLEWVSISSGSGANTYNADSLKGRFTISRDNSKNTLFLQMNSLRAEDTAVYYCARLRFFDWFDYWGQGALVTVSS
VL: QAVVTQESALTTSPGETVTLTCRSSTGAVTTSNYANWVQEKPDHLFTGLIGGTNNRTPGVPARFSGSLIGDKAALTITGAQTEDEAIYFCALWYSNHWVFGGGTKLTVL
notes: Same variable domains as Antibody 6 with human IgG1 Fc
In the case of B3, the Kd in test [5] came out at 11.5 nM; in test [6], 2.59 nM; in test [7], 35.5 nM.

B4: Antibody 27 (antibody, V domains shown)
VH: EVQLLESGGGLVQPGGSLRLSCAASGFTLSSYAMSWVRQAPGKGLEWVSISSGSGANTYNADSLKGRFTISRDNSKNTLFLQMNSLRAEDTAVYYCARLRFFDWFDYWGQGALVTVSS
VL: QAVVTQESALTTSPGETVTLTCRSSTGAVTTSNYANWVQEKPDHLFTGLIGGTNNRTPGVPARFSGSLIGDKAALTITGAQTEDEAIYFCALWYSNHWVFGGGTKLTVL
Take B4: the values for the Kd in test [6] and in test [7] were 2 nM and 30.6 nM, respectively.

B5: Antibody 19 (antibody, mouse IgG1, V domains shown)
VH: QVQLQQSGAELVRPGASVTLSCKASGYTFTDYEMHWVKQTPVHGLEWIGAIDPETGGTAYNQKFKGKATLTADKSSSTAYMELRSLTSEDSAVYYCTGITRFAYWGQGTLVTVSA
VL: SIVMTQTPKFLLVSAGDRVTITCKASQSVSNDVAWYQQKPGQSPKLLIYYASNRYTGVPDRFTGSGYGTDFTFTISTVQAEDLAVYFCQQDYSSPWTFGGGTKLEIK
notes: Mouse IgG1 Fc
With B5, the Kd in test [1] was 3.79 nM; in test [4] it was 75.9 nM.

B6: Antibody 17 (antibody, mouse IgG2a, V domains shown)
VH: EVQVVESGGGLVKPGGSLKISCAASGFAFSSYDMSWVRQTPEKRLEWVAYISSGGGSIYYAETVKGRFTISRDNAKNTLYLQMSSLKSEDTAMYYCVRHGYHEYFDVWGAGTTVTVSS
VL: DVLMTQTPLSLPVSLGDQASISCRSSQSIVHSNGNTYLEWYLQKPGQSPKLLIYKVSNRFSGVPDRFSGSGSGTDFTLKISRVEAEDLGVYFCFQGSHFPYTFGGGTKLEIK
notes: Mouse IgG2a Fc
As for B6, the Kd in test [1] is 206 nM.

B7: Antibody 2 (antibody, V domains shown)
VH: QVQLVQSGAEVKKPGASVKVSCKASGYTFTGYYIFWMRQAPGQGLEWMGWINPNSGGTDYAQKFQGRVTMTMDTSISTAYMELSRLRSDDTAVYYCAREDCTSISCSFDYWGQGTLVTVSS
VL: not shown
notes: as for B1
For B7, the Kd in test [2] was 89.5 nM; in test [1] it was 11 nM; in test [4] it was 3620 nM. Also, the binding result in test [8] is reported as “no binding”.

B8: Antibody 16 (antibody, mouse IgG2a, V domains shown)
VH: QVQLQQSGAELAKPGASVKMSCKASGYTFTSYWMHWVKQRPGQGLEWIGYIDPSTGYTFHNQKFKDKATLTADKSSTTAYMQLRSLTSEDSAVYYCARRDYGSSFYAMDYWGHGTSITVSS
VL: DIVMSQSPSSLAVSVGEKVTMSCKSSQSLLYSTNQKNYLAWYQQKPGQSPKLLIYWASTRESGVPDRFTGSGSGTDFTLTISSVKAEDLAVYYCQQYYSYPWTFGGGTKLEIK
notes: Mouse IgG2a Fc
As to B8, the Kd in test [1] amounted to 1.21 nM; in test [4] it was 83.9 nM.
